We go through one molecule from paper PMC3598503 (2013).

Bridges are numbered along the chain shown (N, C = ends). Where no end group is shown, it is not given here.

One may read the Kd as the constant that tells how readily two partners part at equilibrium. A high value points to weaker binding.

The target in this test is T1, p32 (Homo sapiens, UniProt Q07021).
T1 chain: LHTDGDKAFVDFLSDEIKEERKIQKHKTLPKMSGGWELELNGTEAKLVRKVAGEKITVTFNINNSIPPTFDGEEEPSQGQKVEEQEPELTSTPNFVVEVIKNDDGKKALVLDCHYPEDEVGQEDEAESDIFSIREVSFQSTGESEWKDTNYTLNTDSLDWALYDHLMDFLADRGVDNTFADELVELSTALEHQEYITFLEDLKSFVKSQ
Description: SPR. For orientation: In SPR one partner is held on a chip, and binding of the other changes the refractive index at the surface.

B1: Lyp-1 (peptide)
chain: CGNKRTRGC
modifications: disulfide 1-9
Turning to B1, the Kd worked out at 10.6 nM.
